First the molecules themselves.
B1: TPR 5TU (parent)
chain: GGAUCUUCUCGAUCUAACAAAAAAGACAAAUCUGCCACAAAGCUUGAGAGCAUCUUCGGAUGCAGAGGCGGCAGCCUUCGGUGGCGCGAUAGCGCCAACGUUCUCAACUAUGACACGCAAAACGCGUGCUCCGUUGAAUGGAGUUUAUCAUG

Here are results for 83 variants from the RNAGym collection of RNA variant scans (doi:10.1073/pnas.2313332121).

This sample holds only a part of the variants without activity.

The data set covers variants of B1. Put plainly: polymerase ribozyme fitness, log enrichment relative to wild type (log ratio); higher = more active; in vitro selection for triplet polymerase activity. The method, boiled down:
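Fitness measures genotype enrichment against wild-type enrichment on a logarithmic scale, with inverse-variance-weighted averaging of replicates. The logarithm is base 2, and genotypes were kept only with ≥10 input reads and ≥1 read per output in Illumina sequencing. The sequenced libraries came from one triplicate in vitro selection round, including frozen incubation at −7 °C, of PCR-built, transcribed mutant libraries of each subunit of a heterodimeric triplet polymerase ribozyme.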
U53A C54G: the “polymerase ribozyme fitness (log ratio)” value was -2.2.

On to U53A C54U, for which the “polymerase ribozyme fitness (log ratio)” value is -0.319.

U53A A107U: the “polymerase ribozyme fitness (log ratio)” value is -2.93.

As for U53A A66C A89G G94C C99G, the “polymerase ribozyme fitness (log ratio)” value was -3.94.

On to A52G U56A, for which the “polymerase ribozyme fitness (log ratio)” value was -0.876.

Turning to U53A G58A G71A G126A U135G, the “polymerase ribozyme fitness (log ratio)” value was no more than -4.2.

Regarding U53A C76U G83A, the “polymerase ribozyme fitness (log ratio)” value was -1.6.

For U53A G140C, the “polymerase ribozyme fitness (log ratio)” value is -3.65.

Take A52U C75U A147U: the “polymerase ribozyme fitness (log ratio)” value was -2.82.

For A52G G58C G68A C76A C85U U90G G117U, the “polymerase ribozyme fitness (log ratio)” value was no more than -4.2.

With U53C A64G U90C G117C, the “polymerase ribozyme fitness (log ratio)” value was no more than -4.2.

As for A52G G58U A66G G70U G92A G100A C116A U148A, the “polymerase ribozyme fitness (log ratio)” value was no more than -4.2.

As to U53A C54A C108G G140A, the “polymerase ribozyme fitness (log ratio)” value is no more than -4.2.

For the variant A52U C54A G70A A89G G92C A119C G126A G141A, the “polymerase ribozyme fitness (log ratio)” value is no more than -4.2.

On to U53A U146G, for which the “polymerase ribozyme fitness (log ratio)” value is -2.38.

With U53A A89U, the “polymerase ribozyme fitness (log ratio)” value was -0.481.

As to A52U G59A A98G, the “polymerase ribozyme fitness (log ratio)” value is -1.21.

In the case of U53A C96U, the “polymerase ribozyme fitness (log ratio)” value was -1.85.

In the case of U53A C96A, the “polymerase ribozyme fitness (log ratio)” value is -2.37.

On to U53G U55A C79U G86A G88A C103U U148C, for which the “polymerase ribozyme fitness (log ratio)” value is no more than -4.2.

With A52G U61G A73G, the “polymerase ribozyme fitness (log ratio)” value was -2.84.

Consider U53A A97C, for which the “polymerase ribozyme fitness (log ratio)” value was -0.583.

In the case of U53A C75G U109G U139C, the “polymerase ribozyme fitness (log ratio)” value is no more than -4.2.

Take U53C U77C: the “polymerase ribozyme fitness (log ratio)” value is no more than -4.2.

Take A52G U109G A122U: the “polymerase ribozyme fitness (log ratio)” value is -1.46.

Take U53A G81U G88A A115G A147U: the “polymerase ribozyme fitness (log ratio)” value was no more than -4.2.

On to A52U G81A C87A A97U U104G G126C U134G G136C, for which the “polymerase ribozyme fitness (log ratio)” value is no more than -4.2.

On to A52G C93G C96U U104C A150G, for which the “polymerase ribozyme fitness (log ratio)” value is no more than -4.2.

With A52U U139G U144C, the “polymerase ribozyme fitness (log ratio)” value is -1.12.

A52G G84U U144G: the “polymerase ribozyme fitness (log ratio)” value is -1.56.

For the variant A52U G84U G86A A91U A121U, the “polymerase ribozyme fitness (log ratio)” value was no more than -4.2.

For the variant U53C G74A C76G C96U A110U, the “polymerase ribozyme fitness (log ratio)” value is no more than -4.2.

Take U53A G83A C118A: the “polymerase ribozyme fitness (log ratio)” value is -1.88.

Regarding U53G C93A C95A A97U A98C G100U U130G G140U, the “polymerase ribozyme fitness (log ratio)” value was no more than -4.2.

For the variant U53G C87U A113U C116A G140U, the “polymerase ribozyme fitness (log ratio)” value was no more than -4.2.

Regarding A52U U53A, the “polymerase ribozyme fitness (log ratio)” value is -1.23.

For the variant U53A A98G U101G, the “polymerase ribozyme fitness (log ratio)” value is -1.25.

As to A52U U104A G133C G141C U146G, the “polymerase ribozyme fitness (log ratio)” value is no more than -4.2.

On to U53A U56G C57U A73G C87A G143A, for which the “polymerase ribozyme fitness (log ratio)” value is no more than -4.2.

For A52U G136A, the “polymerase ribozyme fitness (log ratio)” value was -0.592.

For the variant A52U U144G A147C, the “polymerase ribozyme fitness (log ratio)” value was -0.409.

Take A52G U53A C57A A73U C87G C93A C132U A150C: the “polymerase ribozyme fitness (log ratio)” value is no more than -4.2.

For U53A G58A A73U C75A A89U G92U A110U G126U G140A A147U, the “polymerase ribozyme fitness (log ratio)” value was no more than -4.2.

With A52U G67U C85A C125G, the “polymerase ribozyme fitness (log ratio)” value was no more than -4.2.

For the variant U53A G58C A73U C95A, the “polymerase ribozyme fitness (log ratio)” value is no more than -4.2.

As for A52U U53A C57A G86A, the “polymerase ribozyme fitness (log ratio)” value was -1.31.

For U53G C87G G133U, the “polymerase ribozyme fitness (log ratio)” value is no more than -4.2.

For the variant A52U C69U G83C C116G, the “polymerase ribozyme fitness (log ratio)” value was -4.13.

Regarding A52U C93U A119U G124U, the “polymerase ribozyme fitness (log ratio)” value is -3.24.

In the case of U53G U55A U148C, the “polymerase ribozyme fitness (log ratio)” value is no more than -4.2.

For the variant U53A U56A G152A, the “polymerase ribozyme fitness (log ratio)” value is -4.

As for U53A C72U A97G U134A, the “polymerase ribozyme fitness (log ratio)” value was -3.33.

For U53A A91G G124A U139G U146A, the “polymerase ribozyme fitness (log ratio)” value was -3.5.

U53A G80C G143U: the “polymerase ribozyme fitness (log ratio)” value is no more than -4.2.

In the case of U53G C72G C108G C116A, the “polymerase ribozyme fitness (log ratio)” value was no more than -4.2.

With U53A A97C A113G, the “polymerase ribozyme fitness (log ratio)” value is -3.54.

On to A52U G80A, for which the “polymerase ribozyme fitness (log ratio)” value is -3.35.

For the variant A52G G100U A106U, the “polymerase ribozyme fitness (log ratio)” value is no more than -4.2.

Consider U53A G94A C125A U139C A142C, for which the “polymerase ribozyme fitness (log ratio)” value was no more than -4.2.

As to A52U C54U, the “polymerase ribozyme fitness (log ratio)” value was -1.2.

As for A52U C54G, the “polymerase ribozyme fitness (log ratio)” value is -2.21.

Consider U53A A73U, for which the “polymerase ribozyme fitness (log ratio)” value was -2.21.

As to U53G U90G G100A G124A U144C, the “polymerase ribozyme fitness (log ratio)” value is no more than -4.2.

For the variant A52G U101G, the “polymerase ribozyme fitness (log ratio)” value was -0.16.

Regarding U53A U55G, the “polymerase ribozyme fitness (log ratio)” value is -3.97.

U53C C69U C75A C93U A115C: the “polymerase ribozyme fitness (log ratio)” value is no more than -4.2.

U53G C57G G70C C79G A89U A91U C93U: the “polymerase ribozyme fitness (log ratio)” value was no more than -4.2.

For the variant U53C A73G G84A U109G G140C, the “polymerase ribozyme fitness (log ratio)” value is no more than -4.2.

Take A52G U104G: the “polymerase ribozyme fitness (log ratio)” value is -1.26.

Consider U53A A119U, for which the “polymerase ribozyme fitness (log ratio)” value is -2.1.

Take A52U C95A C103G C116G G133U: the “polymerase ribozyme fitness (log ratio)” value is no more than -4.2.

In the case of U53A C103G, the “polymerase ribozyme fitness (log ratio)” value is -3.95.

Take A52G U90A A142G: the “polymerase ribozyme fitness (log ratio)” value was no more than -4.2.

As for U53A A66C, the “polymerase ribozyme fitness (log ratio)” value was -4.19.

Regarding U53A A66U, the “polymerase ribozyme fitness (log ratio)” value is no more than -4.2.

For U53G C54A C95U U104C A106U C118U C149G, the “polymerase ribozyme fitness (log ratio)” value was no more than -4.2.

Regarding A52U U82A C93A C131G, the “polymerase ribozyme fitness (log ratio)” value was no more than -4.2.

On to U53A U55G C57A, for which the “polymerase ribozyme fitness (log ratio)” value worked out at 0.733.

In the case of A52U C93A U139G, the “polymerase ribozyme fitness (log ratio)” value is no more than -4.2.

Consider U53A C76A, for which the “polymerase ribozyme fitness (log ratio)” value was -2.19.

On to U53A C76G, for which the “polymerase ribozyme fitness (log ratio)” value was no more than -4.2.

A52G U78C: the “polymerase ribozyme fitness (log ratio)” value was -0.764.

In the case of U53G G92U G143U U144A, the “polymerase ribozyme fitness (log ratio)” value was -3.84.
